Experimental data from US20210032312A1 (Janssen / Centocor, published 2021).

What was measured:
[1] = target: T1, cynomolgus monkey CD8A on primary cynomolgus monkey CD8+ T cells (cynomolgus monkey, UniProt P01732 23-235 (human entry)); assay: flow cytometry, cyno CD8+ T cells, 2 uM FN3
T1 construct: also called Cyno CD8alpha
Experimental: (§1) Binding of the 190 ELISA hits to human and cynomologous monkey primary CD8 T cells was assessed by flow cytometry. The FN3 domain molecules were diluted to 2 μM and 0.2 μM in PBS and incubated with human or cynomologous monkey CD8+ T cells in 96-well format. After 1 hour at 4 C, the cells were washed once with PBS and then resuspended with an anti-FN3 domain antibody (PAB25) solution. Following this incubation, the cells were washed twice with PBS and a PE conjugated secondary antibody and a viability dye were added. Finally, cells were washed and resuspended in PBS for flow cytometric analysis using a BD Canto Instrument. Cells were gating on live cells and median fluorescence intensity of the bound Centyrins (PE channel) was calculated using Cytobank software.

[2] = target: T1, cynomolgus monkey CD8A on primary …; assay: flow cytometry, cyno CD8+ T cells, 0.2 uM FN3
Experimental: as §1

[3] = target: T2, human CD8 alpha (CD8A) on primary human CD8+ T cells (human, UniProt P01732 22-235); assay: flow cytometry, human CD8+ T cells, 2 uM FN3
T2 construct: whole, on cells; also called hCD8A
Experimental: as §1

[4] = target: T2, human CD8 alpha (CD8A) on primary human …; assay: flow cytometry, human CD8+ T cells, 0.2 uM FN3
Experimental: as §1

In house human CD8A-Fc = target: T3, In house human CD8A-Fc (human, UniProt P01732 22-182, limits assumed); assay: SPR (ProteOn), captured hCD8A-Fc
T3 construct: Captured on goat anti-human Fc on a ProteOn GLC chip; also called hCD8A-Fc; recombinant human CD8 alpha; not shown: linker with flag (and polyhistidine) tag and Fc of human IgG1
Experimental: Purified anti-CD8A FN3 domains were subjected to off-rate analysis using a Proteon surface plasmon resonance instrument in order to pick clones with the slowest off-rates for further characterization.
The immobilized GAH-Fc IgG densities averaged about 6000 Response Units (Ru) with less than 1% variation among different channels. In house human CD8A-Fc was captured in vertical orientation at 3 different ligand densities, 10, 5, 2.5 μg/ml for 5 minutes at 30 ul/minute flowrate. All FN3 domains were normalized to a 3 μM concentration, and tested for binding in horizontal orientation. All 6 analyte channels were used for FN3 domains to maximize the screening throughput. The dissociation phase was monitored for 15 minutes at a flow rate of 100 μl/min using PBST as running buffer. […] Data analyses were performed using Bio-Rad ProteOn Manager software (version 3.1.0.6). Raw data were double referenced by subtraction of the interspot (empty chip surface, no protein immobilized or captured) signals to correct the non-specific binding of the FN3 domain to the pre-coated GAH-Fc IgG surface, followed by a double correction using empty channel L6 where no hCD8A-Fc was captured. The processed binding data were locally fit to a 1:1 simple Langmuir binding model to extract the koff for each FN3 domain binding to captured hCD8A-Fc.

T2 sequence (P01732 22-235): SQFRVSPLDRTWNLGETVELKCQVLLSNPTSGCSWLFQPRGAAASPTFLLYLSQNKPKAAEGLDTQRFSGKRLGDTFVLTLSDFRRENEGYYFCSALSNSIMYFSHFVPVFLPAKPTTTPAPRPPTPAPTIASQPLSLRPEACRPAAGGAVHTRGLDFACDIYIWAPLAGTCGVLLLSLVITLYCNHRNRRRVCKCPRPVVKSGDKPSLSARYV
T3 sequence (P01732 22-182 limits assumed): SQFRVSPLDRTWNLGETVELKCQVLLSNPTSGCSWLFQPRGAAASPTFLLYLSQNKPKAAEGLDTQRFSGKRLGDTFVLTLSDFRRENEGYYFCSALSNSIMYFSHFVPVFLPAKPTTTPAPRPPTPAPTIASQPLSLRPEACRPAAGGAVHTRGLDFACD
T1 sequence (P01732 other isoform, or with tags, fused parts or gaps limits assumed): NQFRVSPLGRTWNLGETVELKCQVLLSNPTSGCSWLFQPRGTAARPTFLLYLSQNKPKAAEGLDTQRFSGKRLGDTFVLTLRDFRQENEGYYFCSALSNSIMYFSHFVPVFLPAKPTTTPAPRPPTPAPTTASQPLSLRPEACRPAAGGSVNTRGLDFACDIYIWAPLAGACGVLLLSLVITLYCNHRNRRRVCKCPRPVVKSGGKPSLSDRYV

B1: P282AR9P1356_D3 (designed binder)
chain: LPAPKNLVVSRVTEDSARLSWTRHETSFDSFLIQYRESEKVGEAIVLTVPGSERSYDLTGLKPGTEYTVSIYGVVVEYDAAGNPKYSNPLSAIFTT
notes: FN3 domain
Cyno T-cell Binding 2 uM (MFI) [1]: 13900 MFI | Cyno T-cell Binding 0.2 uM (MFI) [2]: 3360 MFI | Human T-cell Binding 2 uM (MFI) [3]: 5960 MFI | Human T-cell Binding 0.2 uM (MFI) [4]: 2400 MFI | koff (In house human CD8A-Fc): 0.000158 s⁻¹

B2: P282AR9P1356_A10 (designed binder)
chain: LPAPKNLVVSRVTEDSARLSWHTATNSFDSFLIQYQESEKVGEAIVLTVPGSERSYDLTGLKPGTEYTVSIYGVDVDYNPTGRPVSSNPLSAIFTT
notes: FN3 domain
Cyno T-cell Binding 2 uM (MFI) [1]: 10600 MFI | Cyno T-cell Binding 0.2 uM (MFI) [2]: 3120 MFI | Human T-cell Binding 2 uM (MFI) [3]: 4260 MFI | Human T-cell Binding 0.2 uM (MFI) [4]: 2090 MFI | koff (In house human CD8A-Fc): 0.000291 s⁻¹

B3: P282AR9P1356_H1 (designed binder)
chain: LPAPKNLVVSRVTEDSARLSWIPNPSSFDSFLIQYQESEKVGEAIVLTVPGSERSYDLTGLKPGTEYTVSIYGVDVVFDPVGFPSHSNPLSAIFTT
notes: FN3 domain
Cyno T-cell Binding 2 uM (MFI) [1]: 46300 MFI | Cyno T-cell Binding 0.2 uM (MFI) [2]: 5700 MFI | Human T-cell Binding 2 uM (MFI) [3]: 14700 MFI | Human T-cell Binding 0.2 uM (MFI) [4]: 3230 MFI | koff (In house human CD8A-Fc): 0.000114 s⁻¹

B4: P283AR9P1362_D7 (designed binder)
chain: LPAPKNLVVSRVTEDSARLSWVKRATSFDSFLIQYQESEKVGEAIVLTVPGSERSYDLTGLKPGTEYTVSIYGVDVKYDIDSRPISSNPLSAIFTT
notes: FN3 domain
Cyno T-cell Binding 2 uM (MFI) [1]: 27500 MFI | Cyno T-cell Binding 0.2 uM (MFI) [2]: 4850 MFI | Human T-cell Binding 2 uM (MFI) [3]: 17300 MFI | Human T-cell Binding 0.2 uM (MFI) [4]: 3350 MFI | koff (In house human CD8A-Fc): 0.000118 s⁻¹

B5: P283AR9P1362_C12 (designed binder)
chain: LPAPKNLVVSRVTEDSARLSWAKNLHSFDSFLIQYQESEKVGEAIVLTVPGSERSYDLTGLKPGTEYTVSIYGVDVKYDIDSRPISSNPLSAIFTT
notes: FN3 domain
Cyno T-cell Binding 2 uM (MFI) [1]: 14800 MFI | Cyno T-cell Binding 0.2 uM (MFI) [2]: 3830 MFI | Human T-cell Binding 2 uM (MFI) [3]: 7060 MFI | Human T-cell Binding 0.2 uM (MFI) [4]: 2620 MFI | koff (In house human CD8A-Fc): 9.94e-05 s⁻¹

B6: P283AR9P1362_D4 (designed binder)
chain: LPAPKNLVVSRVTEDSARLSWVREHDSFDSFLIQYQESEKVGEAIVLTVPGSERSYDLTGLKPGTEYTVSIYGVDVKYDIDSRPISSNPLSAIFTT
notes: FN3 domain
Cyno T-cell Binding 2 uM (MFI) [1]: 25700 MFI | Cyno T-cell Binding 0.2 uM (MFI) [2]: 4100 MFI | Human T-cell Binding 2 uM (MFI) [3]: 9830 MFI | Human T-cell Binding 0.2 uM (MFI) [4]: 2980 MFI | koff (In house human CD8A-Fc): 9.72e-05 s⁻¹

B7: P282AR9P1356_H6 (designed binder)
chain: LPAPKNLVVSRVTEDSARLSWRKRANSFDSFLIQYQESEKVGEAIVLTVPGSERSYDLTGLKPGTEYTVSIYGVHVEYDQHGRPRWSNPLSAIFTT
notes: FN3 domain
Cyno T-cell Binding 2 uM (MFI) [1]: 14400 MFI | Cyno T-cell Binding 0.2 uM (MFI) [2]: 3200 MFI | Human T-cell Binding 2 uM (MFI) [3]: 6650 MFI | Human T-cell Binding 0.2 uM (MFI) [4]: 2640 MFI | koff (In house human CD8A-Fc): 8.08e-05 s⁻¹

B8: P283AR9P1362_B8 (designed binder)
chain: LPAPKNLVVSRVTEDSARLSWWTSPLPFDSFLIQYQESEKVGEAIVLTVPGSERSYDLTGLKPGTEYTVSIYGVDVKYDIDSRPISSNPLSAIFTT
notes: FN3 domain
Cyno T-cell Binding 2 uM (MFI) [1]: 12900 MFI | Cyno T-cell Binding 0.2 uM (MFI) [2]: 2270 MFI | Human T-cell Binding 2 uM (MFI) [3]: 5740 MFI | Human T-cell Binding 0.2 uM (MFI) [4]: 1580 MFI | koff (In house human CD8A-Fc): 0.000648 s⁻¹

B9: P283AR9P1362_A3 (designed binder)
chain: LPAPKNLVVSRVTEDSARLSWKRIDSPFDSFLIQYQESEKVGEAIVLTVPGSERSYDLTGLKPGTEYTVSIYGVDVKYDIDSRPISSNPLSAIFTT
notes: FN3 domain
Cyno T-cell Binding 2 uM (MFI) [1]: 17300 MFI | Cyno T-cell Binding 0.2 uM (MFI) [2]: 3530 MFI | Human T-cell Binding 2 uM (MFI) [3]: 5540 MFI | Human T-cell Binding 0.2 uM (MFI) [4]: 1400 MFI | koff (In house human CD8A-Fc): 0.00153 s⁻¹

B10: P283AR9P1362_A4 (designed binder)
chain: LPAPKNLVVSRVTEDSARLSWIGHDSGFDSFLIQYQESEKVGEAIVLTVPGSERSYDLTGLKPGTEYTVSIYGVDVKYDIDSRPISSNPLSAIFTT
notes: FN3 domain
Cyno T-cell Binding 2 uM (MFI) [1]: 21200 MFI | Cyno T-cell Binding 0.2 uM (MFI) [2]: 4400 MFI | Human T-cell Binding 2 uM (MFI) [3]: 6310 MFI | Human T-cell Binding 0.2 uM (MFI) [4]: 2540 MFI | koff (In house human CD8A-Fc): 0.000302 s⁻¹

B11: P283AR9P1362_D3 (designed binder)
chain: LPAPKNLVVSRVTEDSARLSWPVESNAFDSFLIQYQESEKVGEAIVLTVPGSERSYDLTGLKPGTEYTVSIYGVDVEYDQHGRPRWSNPLSAIFTT
notes: FN3 domain
Cyno T-cell Binding 2 uM (MFI) [1]: 34600 MFI | Cyno T-cell Binding 0.2 uM (MFI) [2]: 6050 MFI | Human T-cell Binding 2 uM (MFI) [3]: 9500 MFI | Human T-cell Binding 0.2 uM (MFI) [4]: 3480 MFI | koff (In house human CD8A-Fc): 0.000125 s⁻¹

B12: P282AR9P1356_B9 (designed binder)
chain: LPAPKNLVVSRVTEDSARLSWPEGDRPFFDSFLIQYQESEKVGEAIVLTVPGSERSYDLTGLKPGTEYTVSIYGVDVKWEGNRPVASNPLSAIFTT
notes: FN3 domain
Cyno T-cell Binding 2 uM (MFI) [1]: 36400 MFI | Cyno T-cell Binding 0.2 uM (MFI) [2]: 5440 MFI | Human T-cell Binding 2 uM (MFI) [3]: 17200 MFI | Human T-cell Binding 0.2 uM (MFI) [4]: 3670 MFI | koff (In house human CD8A-Fc): 0.000295 s⁻¹

B13: P283AR9P1362_G3 (designed binder)
chain: LPAPKNLVVSRVTEDSARLSWVKRATSFDSFLIQYQESEKVGEAIVLTVPGSERSYDLTGLKPGTEYTVSIYGVDVKWEGNRPVASNPLSAIFTT
notes: FN3 domain
Cyno T-cell Binding 2 uM (MFI) [1]: 35300 MFI | Cyno T-cell Binding 0.2 uM (MFI) [2]: 9200 MFI | Human T-cell Binding 2 uM (MFI) [3]: 18500 MFI | Human T-cell Binding 0.2 uM (MFI) [4]: 4310 MFI | koff (In house human CD8A-Fc): 9.45e-05 s⁻¹

B14: P283AR9P1362_F8 (designed binder)
chain: LPAPKNLVVSRVTEDSARLSWGYYHGHFDSFLIQYQESEKVGEAIVLTVPGSERSYDLTGLKPGTEYTVSIYGVDVKWEGNRPVASNPLSAIFTT
notes: FN3 domain
Cyno T-cell Binding 2 uM (MFI) [1]: 23700 MFI | Cyno T-cell Binding 0.2 uM (MFI) [2]: 4570 MFI | Human T-cell Binding 2 uM (MFI) [3]: 9200 MFI | Human T-cell Binding 0.2 uM (MFI) [4]: 3170 MFI | koff (In house human CD8A-Fc): 0.000112 s⁻¹

B15: P282AR9P1356_A4 (designed binder)
chain: LPAPKNLVVSRVTEDSARLSWVKRPNSFDSFLIQYQESEKVGEAIVLTVPGSERSYDLTGLKPGTEYTVSIYGVDVVDYEGRPRWSNPLSAIFTT
notes: FN3 domain
Cyno T-cell Binding 2 uM (MFI) [1]: 26400 MFI | Cyno T-cell Binding 0.2 uM (MFI) [2]: 8630 MFI | Human T-cell Binding 2 uM (MFI) [3]: 16700 MFI | Human T-cell Binding 0.2 uM (MFI) [4]: 4380 MFI | koff (In house human CD8A-Fc): 8.61e-05 s⁻¹

B16: P283AR9P1362_C7 (designed binder)
chain: LPAPKNLVVSRVTEDSARLSWVKRATSFDSFLIQYQESEKVGEAIVLTVPGSERSYDLTGLKPGTEYTVSIYGVDVRYNEGQPIWSNPLSAIFTT
notes: FN3 domain
Cyno T-cell Binding 2 uM (MFI) [1]: 19700 MFI | Cyno T-cell Binding 0.2 uM (MFI) [2]: 5520 MFI | Human T-cell Binding 2 uM (MFI) [3]: 11000 MFI | Human T-cell Binding 0.2 uM (MFI) [4]: 2790 MFI | koff (In house human CD8A-Fc): 0.000186 s⁻¹

B17: P282AR9P1356_A6 (designed binder)
chain: LPAPKNLVVSRVTEDSARLSWSKTDSSFDSFLIQYQESEKVGEAIVLTVPGSERSYDLTGLKPGTEYTVSIYGVDVVYIEGNPVFSNPLSAIFTT
notes: FN3 domain
Cyno T-cell Binding 2 uM (MFI) [1]: 31400 MFI | Cyno T-cell Binding 0.2 uM (MFI) [2]: 5780 MFI | Human T-cell Binding 2 uM (MFI) [3]: 10800 MFI | Human T-cell Binding 0.2 uM (MFI) [4]: 3440 MFI | koff (In house human CD8A-Fc): 9.73e-05 s⁻¹
